Experimental data: patent US20100172907A1 (Hoffmann-La Roche, published 2010)
Groups on a side chain read outwards from the residue. No end group written: not given here. NSMP = not defined here

How the values were obtained:
[1] = biological target: T1, BSA-conjugated Aβ heptapeptide VFFAEDC (C-terminal Cys coupled to NSMP-activated BSA); test: ELISA
T1 construct: also called Peptide 18-23
T1 peptide: VFFAEDC

[2] = biological target: T2, BSA-conjugated Aβ heptapeptide FFAEDVC (C-terminal Cys coupled to NSMP-activated BSA); test: ELISA
T2 construct: also called Peptide 19-24
T2 peptide: FFAEDVC

[3] = biological target: T3, BSA-conjugated Aβ heptapeptide AEFRHDC (C-terminal Cys coupled to NSMP-activated BSA); test: ELISA
T3 construct: also called Peptide 2-7
T3 peptide: AEFRHDC

[4] = biological target: T4, BSA-conjugated Aβ heptapeptide LVFFAEC (reading uncertain; also: BSA conjugate); test: ELISA
T4 construct: also called Peptide 17-22
T4 peptide: LVFFAEC([NSMP-BSA])

Aβ (1-42) peptide = biological target: T5, Aβ (1-42) peptide (human); test: SPR, immobilized fibers;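 further: biacore SPR using in vitro grown Aβ1-40 or Aβ1-42 fibrils immobilized on the chip with Fab analytes, KD from koff/kon fits or equilibrium isotherms based on total Fab concentration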
T5 construct: also called Aβ1-42 fibers; Aβ4
Description: (§1) Biacore2000 and Biacore3000 instruments were used for these measurements. Aβ1-40 and Aβ1-42 fibers were generated in vitro by incubation of synthetic peptides at a concentration of 200 μg/ml in 10 mM Na-acetate buffer (pH 4.0) for three days at 37° C. […] For binders with slow kinetics KD values were calculated by curve fitting of the time-dependent sensor responses, i.e. from the ratio of koff/kₒₙ. Binders with fast kinetics were analyzed by fitting the concentration-dependent sensor responses at equilibrium (adsorption-isotherms). KD values were calculated from the Biacore sensograms based on the total Fab concentration as determined by a protein assay. […] Briefly, time-dependent protein binding to Aβ1-40 fibers immobilized on the Biacore chip was measured during the association phase under mass-limited conditions at different flow rates of the analyte solution.

human Aβ (1-40) peptide = biological target: T6, human Aβ (1-40) peptide (human); test: SPR, immobilized fibers;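 further: biacore SPR using in vitro grown Aβ1-40 or Aβ1-42 fibrils immobilized on the chip with Fab analytes, KD from koff/kon fits or equilibrium isotherms based on total Fab concentration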
T6 construct: also called Aβ1-40 fibers
Description: as §1
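Wherever OD ratio 18-23/BSA is given: ELISA of antibody at 10 or 2 µg/ml binding plate-coated BSA–peptide conjugates, detected with HRP anti-human Ig and TMB colour, mock-treated BSA without peptide as negative control.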
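Wherever OD ratio 19-24/BSA is given: ELISA of antibody at 10 or 2 µg/ml binding plate-coated BSA–peptide conjugates, detected with HRP anti-human Ig and TMB colour, mock-treated BSA without peptide as negative control.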
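Wherever Peptide-ratio 18-23/2-7 is given: ELISA of antibody at 10 or 2 µg/ml binding plate-coated BSA–peptide conjugates, detected with HRP anti-human Ig and TMB colour, mock-treated BSA without peptide as negative control.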
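Wherever Peptide-ratio 19-24/2-7 is given: ELISA of antibody at 10 or 2 µg/ml binding plate-coated BSA–peptide conjugates, detected with HRP anti-human Ig and TMB colour, mock-treated BSA without peptide as negative control.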

| Binder | OD ratio 18-23/BSA [1] | Peptide-ratio 18-23/2-7 [1] | OD ratio 19-24/BSA [2] | Peptide-ratio 19-24/2-7 [2] | OD ratio 2-7/BSA [3] | OD ratio 17-22/BSA [4] | Peptide-ratio 17-22/2-7 [4] | Kd (Aβ (1-42) peptide) [nM] | Kd (human Aβ (1-40) peptide) [nM] |
| --- | --- | --- | --- | --- | --- | --- | --- | --- | --- |
| MS-Roche #7.2 Fab (Fab, V domains shown) VH: not shown VL: DIVLTQSPATLSLSPGERATLSCRASQSVSSSYLAWYQQKPGQAPRLLIYGASSRATGVPARFSGSGSGTDFTLTISSLEPEDFATYYCQQIYSFPHTFGQGTKVEIKR | 16 | 0.47 | 9 | 0.26 | 34 | 12 | 0.35 | 58 | 22 |
| MS-Roche #7.2.H3 Fab (Fab, V domains shown) VH: QVQLVESGGGLVQPGGSLRLSCAASGFTFSSYAMSWVRQAPGKGLEWVSAINANGYKTYYADSVKGRFTISRDNSKNTLYLQMNSLRAEDTAVYYCARGKGNTHKPYGYVRYFDVWGQGTLVTVSS VL: DIVLTQSPATLSLSPGERATLSCRASQSVSSSYLAWYQQKPGQAPRLLIYGASSRATGVPARFSGSGSGTDFTLTISSLEPEDFATYYCQQIYSFPHTFGQGTKVEIKR | 20 | 0.61 | 18 | 0.55 | 33 | 17 | 0.52 | 5.3 | 45.4 |
| MS-Roche #7.2.H2 Fab (Fab, V domains shown) VH: QVQLVESGGGLVQPGGSLRLSCAASGFTFSSYAMSWVRQAPGKGLEWVSAINGTGMKKYYADSVKGRFTISRDNSKNTLYLQMNSLRAEDTAVYYCARGKGNTHKPYGYVRYFDVWGQGTLVTVSS VL: DIVLTQSPATLSLSPGERATLSCRASQSVSSSYLAWYQQKPGQAPRLLIYGASSRATGVPARFSGSGSGTDFTLTISSLEPEDFATYYCQQIYSFPHTFGQGTKVEIKR | 10 | 0.63 | 10 | 0.63 | 16 | 10 | 0.63 | 8.2 | 8.2 |
| MS-Roche #7.4.H2 Fab (Fab, V domains shown) VH: QVQLVESGGGLVQPGGSLRLSCAASGFTFSSYAMSWVRQAPGKGLEWVSAINYNGARIYYADSVKGRFTISRDNSKNTLYLQMNSLRAEDTAVYYCARGKGNTHKPYGYVRYFDVWGQGTLVTVSS VL: not shown | 20 | 0.56 | 16 | 0.46 | 36 | 17 | 0.47 | 6.2 | 9.9 |
| MS-Roche #7.2.H1 Fab (Fab, V domains shown) VH: QVQLVESGGGLVQPGGSLRLSCAASGFTFSSYAMSWVRQAPGKGLEWVSAINANGLKKYYADSVKGRFTISRDNSKNTLYLQMNSLRAEDTAVYYCARGKGNTHKPYGYVRYFDVWGQGTLVTVSS VL: DIVLTQSPATLSLSPGERATLSCRASQSVSSSYLAWYQQKPGQAPRLLIYGASSRATGVPARFSGSGSGTDFTLTISSLEPEDFATYYCQQIYSFPHTFGQGTKVEIKR | 11 | 0.29 | 9 | 0.24 | 38 | 8 | 0.21 | 10.2 | 9.3 |
| MS-Roche #7.2.H5 Fab (Fab, V domains shown) VH: QVQLVESGGGLVQPGGSLRLSCAASGFTFSSYAMSWVRQAPGKGLEWVSAINATGRSKYYADSVKGRFTISRDNSKNTLYLQMNSLRAEDTAVYYCARGKGNTHKPYGYVRYFDVWGQGTLVTVSS VL: DIVLTQSPATLSLSPGERATLSCRASQSVSSSYLAWYQQKPGQAPRLLIYGASSRATGVPARFSGSGSGTDFTLTISSLEPEDFATYYCQQIYSFPHTFGQGTKVEIKR | 18 | 0.6 | 15 | 0.5 | 30 | 13 | 0.43 | 10.1 | 8 |
| MS-Roche #7.2.L1 Fab (Fab, V domains shown) VH: not shown VL: DIVLTQSPATLSLSPGERATLSCRASQYVDRTYLAWYQQKPGQAPRLLIYGASSRATGVPARFSGSGSGTDFTLTISSLEPEDFATYYCQQIYSFPHTFGQGTKVEIKR | 16 | 0.68 | 11 | 0.45 | 24 | 14 | 0.57 | 12.7 | 13.3 |
| MS-Roche #7.2.H4 Fab (Fab, V domains shown) VH: QVQLVESGGGLVQPGGSLRLSCAASGFTFSSYAMSWVRQAPGKGLEWVSAINSKGSRIYYADSVKGRFTISRDNSKNTLYLQMNSLRAEDTAVYYCARGKGNTHKPYGYVRYFDVWGQGTLVTVSS VL: DIVLTQSPATLSLSPGERATLSCRASQSVSSSYLAWYQQKPGQAPRLLIYGASSRATGVPARFSGSGSGTDFTLTISSLEPEDFATYYCQQIYSFPHTFGQGTKVEIKR | 13 | 0.57 | 12 | 0.52 | 23 | 12 | 0.52 | 5 | 5.9 |
| MS-Roche #7.9.H2 Fab (Fab, V domains shown, assembled) VH: QVQLVESGGGLVQPGGSLRLSCAASGFTFSSYAMSWVRQAPGKGLEWVSAINADGNRKYYADSVKGRFTISRDNSKNTLYLQMNSLRAEDTAVYYCARGKGNTHKPYGYVRYFDVWGQGTLVTVSS VL: DIVLTQSPATLSLSPGERATLSCRASQSVSSSYLAWYQQKPGQAPRLLIYGASSRATGVPARFSGSGSGTDFTLTISSLEPEDFATYYCLQIYNMPITFGQGTKVEIKR | 6 | 0.16 | 8 | 0.23 | 35 | 3 | 0.08 | 5.7 | 5 |
